Measurements taken from the RNAGym collection of RNA variant scans (doi:10.1093/molbev/msab373).

B1: Azoarcus group I ribozyme (parent)
chain: GUGCCUUGCGCCGGGAAACCACGCAAGGGAUGGUGUCAAAUUCGGCGAAACCUAAGCGCCCGCCCGGGCGUAUGGCAACGCCGAGCCAAGCUUCGGCGCCUGCGCCGAUGAAGGUGUAGAGACUAGACGGCACCCACCUAAGGCAAACGCUAUGGUGAAGGCAUAGUCCAGGGAGUGGCGAAAGUCACACAAACCGG

Variants of: B1
Assay: reverse-splicing fitness (ratio to wild type); higher = more active; in vitro selection; Mg2+ level not given
Summary of the method: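 An in vitro group I ribozyme library with randomized positions was T7-transcribed and gel-purified. In triplicate, 10 pmol RNA in EPPS pH 7.5 was reacted with 50 pmoles of a 30-nt RNA substrate for 1 h at 37 °C across several added MgCl2 levels (1–48 mM), then stopped with EDTA. Products were reverse transcribed from a substrate-complementary primer, PCR-amplified and sequenced (HiSeq 4000). Fitness is a variant's read proportion after selection over that before, normalised to wild type.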

| Variant | reverse-splicing fitness |
| --- | --- |
| GUGCCUUGCGCCGGGAAACCACGCAAGGGAUGGUGUCAAAUUCGGCGAAACCUAAGCGCCCGCCCGGGCGUAUGGCAACGCUGAGCCAAGCUUCGGCGCCUGCGCCGAUGGAGGUGUAGUGACUAGACGGCACCCACCUAAGGCUAACGGUAUGGUGAAGGCAUAGUCCAGGGAGUGGCGAAAGUCACACAAACCGG | 0.00775 |
| GUGCCUUGCGCCGGGAAACCACGCAAGGGAUGGUGUCAAAUUCGGCGAAACCUAAGCGCCCGCCCGGGCGUAUGGCAACGCUGAGCCAAGCUUCGGCGCCUGCGCCGAUGGAGGUGUAGUGACUAGACGGCACCCACCUAAGGCUAACGUUAUGGUGAAGGCAUAGUCCAGGGAGUGGCGAAAGUCACACAAACCGG | 0.0272 |
| GUGCCUUGCGCCGGGAAACCACGCAAGGGAUGGUGUCAAAUUCGGCGAAACCUAAGCGCCCGCCCGGGCGUAUGGCAACGCUGAGCCAAGCUUCGGCGCCUGCGCCGAUGGAGGUGUAGUGACUAGACGGCACCCACCUAAGGCUAACGAUAUGGUGAAGGCAUAGUCCAGGGAGGGGCGAAAGUCACACAAACCGG | 0.00212 |
| GUGCCUUGCGCCGGGAAACCACGCAAGGGAUGGUGUCAAAUUCGGCGAAACCUAAGCGCCCGCCCGGGCGUAUGGCAACGCUGAGCCAAGCUUCGGCGCCUGCGCCGAUGGAGGUGUAGUGACUAGACGGCACCCACCUAAGGCUAACGUUAUGGUGAAGGCAUAGUCUAGGGAGUGGCGAAAGUCACACAAACCGG | 0.00372 |
| GUGCCUUGCGCCGGGAAACCACGCAAGGGAUGGUGUCAAAUUCGGCGAAACCUAAGCGCCCGCCCGGGCGUAUGGCAACGCUGAGCCAAGCUUCGGCGCCUGCGCCGAUGGAGGUGUAGUGACUAGACGGCACCCACCUAAGGCUAACGUUAUGGUGAAGGCAUAGUCGAGGGAGUGGCGAAAGUCACACAAACCGG | 0.00305 |
| GUGCCUUGCGCCGGGAAACCACGCAAGGGAUGGUGUCAAAUUCGGCGAAACCUAAGCGCCCGCCCGGGCGUAUGGCAACGCUGAGCCAAGCUUCGGCGCCUGCGCCGAUGGAGGUGUAGUGACUAGACGGCACCCACCUAAGGCUAACGUUAUGGUGAAGGCAUAGUCAAGGGAGUGGCGAAAGUCACACAAACCGG | 0.00252 |
| GUGCCUUGCGCCGGGAAACCACGCAAGGGAUGGUGUCAAAUUCGGCGAAACCUAAGCGCCCGCCCGGGCGUAUGGCAACGCUGAGCCAAGCUUCGGCGCCUGCGCCGAUGGAGGUGUAGUGACUAGACGGCACCCACCUAAGGCUAACGGUAUGGUGAAGGCAUAGUCGAGGGAGUGGCGAAAGUCACACAAACCGG | 0.00266 |
| GUGCCUUGCGCCGGGAAACCACGCAAGGGAUGGUGUCAAAUUCGGCGAAACCUAAGCGCCCGCCCGGGCGUAUGGCAACGCUGAGCCAAGCUUCGGCGCCUGCGCCGAUGGAGGUGUAGUGACUAGACGGCACCCACCUAAGGCUAACGGUAUGGUGAAGGCAUAGUCAAGGGAGUGGCGAAAGUCACACAAACCGG | 0.00272 |
| GUGCCUUGCGCCGGGAAACCACGCAAGGGAUGGUGUCAAAUUCGGCGAAACCUAAGCGCCCGCCCGGGCGUAUGGCAACGCUGAGCCAAGCUUCGGCGCCUGCGCCGAUGGAGGUGUAGUGACUAGACGGCACCCACCUAAGGCUAACGGUAUGGUGAAGGCAUAGUCUAGGGAGUGGCGAAAGUCACACAAACCGG | 0.00235 |
| GUGCCUUGCGCCGGGAAACCACGCAAGGGAUGGUGUCAAAUUCGGCGAAACCUAAGCGCCCGCCCGGGCGUAUGGCAACGCUGAGCCAAGCUUCGGCGCCUGCGCCGAUGGAGGUGUAGUGACUAGACGGCACCCACCUAAGGCUAACGGUAUGGUGAAGGCAUAGUCUAGGGAGCGGCGAAAGUCACACAAACCGG | 0.00227 |
| GUGCCUUGCGCCGGGAAACCACGCAAGGGAUGGUGUCAAAUUCGGCGAAACCUAAGCGCCCGCCCGGGCGUAUGGCAACGCUGAGCCAAGCUUCGGCGCCUGCGCCGAUGGAGGUGUAGUGACUAGACGGCACCCACCUAAGGCUAACGGUAUGGUGAAGGCAUAGUCUAGGGAGAGGCGAAAGUCACACAAACCGG | 0.00271 |
| GUGCCUUGCGCCGGGAAACCACGCAAGGGAUGGUGUCAAAUUCGGCGAAACCUAAGCGCCCGCCCGGGCGUAUGGCAACGCUGAGCCAAGCUUCGGCGCCUGCGCCGAUGGAGGUGUAGUGACUAGACGGCACCCACCUAAGGCUAACGGUAUGGUGAAGGCAUAGUCUAGGGAGGGGCGAAAGUCACACAAACCGG | 0.00213 |
| GUGCCUUGCGCCGGGAAACCACGCAAGGGAUGGUGUCAAAUUCGGCGAAACCUAAGCGCCCGCCCGGGCGUAUGGCAACGCUGAGCCAAGCUUCGGCGCCUGCGCCGAUGGAGGUGUAGUGACUAGACGGCACCCACCUAAGGCUAACGUUAUGGUGAAGGCAUAGUCAAGGGAGAGGCGAAAGUCACACAAACCGG | 0.00289 |
| GUGCCUUGCGCCGGGAAACCACGCAAGGGAUGGUGUCAAAUUCGGCGAAACCUAAGCGCCCGCCCGGGCGUAUGGCAACGCUGAGCCAAGCUUCGGCGCCUGCGCCGAUGGAGGUGUAGUGACUAGACGGCACCCACCUAAGGCUAACGUUAUGGUGAAGGCAUAGUCAAGGGAGCGGCGAAAGUCACACAAACCGG | 0.0023 |
| GUGCCUUGCGCCGGGAAACCACGCAAGGGAUGGUGUCAAAUUCGGCGAAACCUAAGCGCCCGCCCGGGCGUAUGGCAACGCUGAGCCAAGCUUCGGCGCCUGCGCCGAUGGAGGUGUAGUGACUAGACGGCACCCACCUAAGGCUAACGUUAUGGUGAAGGCAUAGUCAAGGGAGGGGCGAAAGUCACACAAACCGG | 0.00165 |
